B1: Kinesin-like protein KIF21A (Homo sapiens), Q7Z4S6 (parent)
chain: MLGAPDESSVRVAVRIRPQLAKEKIEGCHICTSVTPGEPQVFLGKDKAFTFDYVFDIDSQQEQIYIQCIEKLIEGCFEGYNATVFAYGQTGAGKTYTMGTGFDVNIVEEELGIISRAVKHLFKSIEEKKHIAIKNGLPAPDFKVNAQFLELYNEEVLDLFDTTRDIDAKSKKSNIRIHEDSTGGIYTVGVTTRTVNTESEMMQCLKLGALSRTTASTQMNVQSSRSHAIFTIHVCQTRVCPQIDADNATDNKIISESAQMNEFETLTAKFHFVDLAGSERLKRTGATGERAKEGISINCGLLALGNVISALGDKSKRATHVPYRDSKLTRLLQDSLGGNSQTIMIACVSPSDRDFMETLNTLKYANRARNIKNKVMVNQDRASQQINALRSEITRLQMELMEYKTGKRIIDEEGVESINDMFHENAMLQTENNNLRVRIKAMQETVDALRSRITQLVSDQANHVLARAGEGNEEISNMIHSYIKEIEDLRAKLLESEAVNENLRKNLTRATARAPYFSGSSTFSPTILSSDKETIEIIDLAKKDLEKLKRKEKRKKKRLQKLEESNREERSVAGKEDNTDTDQEKKEEKGVSERENNELEVEESQEVSDHEDEEEEEEEEEDDIDGGESSDESDSESDEKANYQADLANITCEIAIKQKLIDELENSQKRLQTLKKQYEEKLMMLQHKIRDTQLERDQVLQNLGSVESYSEEKAKKVRSEYEKKLQAMNKELQRLQAAQKEHARLLKNQSQYEKQLKKLQQDVMEMKKTKVRLMKQMKEEQEKARLTESRRNREIAQLKKDQRKRDHQLRLLEAQKRNQEVVLRRKTEEVTALRRQVRPMSDKVAGKVTRKLSSSDAPAQDTGSSAAAVETDASRTGAQQKMRIPVARVQALPTPATNGNRKKYQRKGLTGRVFISKTARMKWQLLERRVTDIIMQKMTISNMEADMNRLLKQREELTKRREKLSKRREKIVKENGEGDKNVANINEEMESLTANIDYINDSISDCQANIMQMEEAKEEGETLDVTAVINACTLTEARYLLDHFLSMGINKGLQAAQKEAQIKVLEGRLKQTEITSATQNQLLFHMLKEKAELNPELDALLGHALQDLDSVPLENVEDSTDEDAPLNSPGSEGSTLSSDLMKLCGEVKPKNKARRRTTTQMELLYADSSELASDTSTGDASLPGPLTPVAEGQEIGMNTETSGTSAREKELSPPPGLPSKIGSISRQSSLSEKKIPEPSPVTRRKAYEKAEKSKAKEQKHSDSGTSEASLSPPSSPPSRPRNELNVFNRLTVSQGNTSVQQDKSDESDSSLSEVHRSSRRGIINPFPASKGIRAFPLQCIHIAEGHTKAVLCVDSTDDLLFTGSKDRTCKVWNLVTGQEIMSLGGHPNNVVSVKYCNYTSLVFTVSTSYIKVWDIRDSAKCIRTLTSSGQVTLGDACSASTSRTVAIPSGENQINQIALNPTGTFLYAASGNAVRMWDLKRFQSTGKLTGHLGPVMCLTVDQISSGQDLIITGSKDHYIKMFDVTEGALGTVSPTHNFEPPHYDGIEALTIQGDNLFSGSRDNGIKKWDLTQKDLLQQVPNAHKDWVCALGVVPDHPVLLSGCRGGILKVWNMDTFMPVGEMKGHDSPINAICVNSTHIFTAADDRTVRIWKARNLQDGQISDTGDLGEDIASN
partner: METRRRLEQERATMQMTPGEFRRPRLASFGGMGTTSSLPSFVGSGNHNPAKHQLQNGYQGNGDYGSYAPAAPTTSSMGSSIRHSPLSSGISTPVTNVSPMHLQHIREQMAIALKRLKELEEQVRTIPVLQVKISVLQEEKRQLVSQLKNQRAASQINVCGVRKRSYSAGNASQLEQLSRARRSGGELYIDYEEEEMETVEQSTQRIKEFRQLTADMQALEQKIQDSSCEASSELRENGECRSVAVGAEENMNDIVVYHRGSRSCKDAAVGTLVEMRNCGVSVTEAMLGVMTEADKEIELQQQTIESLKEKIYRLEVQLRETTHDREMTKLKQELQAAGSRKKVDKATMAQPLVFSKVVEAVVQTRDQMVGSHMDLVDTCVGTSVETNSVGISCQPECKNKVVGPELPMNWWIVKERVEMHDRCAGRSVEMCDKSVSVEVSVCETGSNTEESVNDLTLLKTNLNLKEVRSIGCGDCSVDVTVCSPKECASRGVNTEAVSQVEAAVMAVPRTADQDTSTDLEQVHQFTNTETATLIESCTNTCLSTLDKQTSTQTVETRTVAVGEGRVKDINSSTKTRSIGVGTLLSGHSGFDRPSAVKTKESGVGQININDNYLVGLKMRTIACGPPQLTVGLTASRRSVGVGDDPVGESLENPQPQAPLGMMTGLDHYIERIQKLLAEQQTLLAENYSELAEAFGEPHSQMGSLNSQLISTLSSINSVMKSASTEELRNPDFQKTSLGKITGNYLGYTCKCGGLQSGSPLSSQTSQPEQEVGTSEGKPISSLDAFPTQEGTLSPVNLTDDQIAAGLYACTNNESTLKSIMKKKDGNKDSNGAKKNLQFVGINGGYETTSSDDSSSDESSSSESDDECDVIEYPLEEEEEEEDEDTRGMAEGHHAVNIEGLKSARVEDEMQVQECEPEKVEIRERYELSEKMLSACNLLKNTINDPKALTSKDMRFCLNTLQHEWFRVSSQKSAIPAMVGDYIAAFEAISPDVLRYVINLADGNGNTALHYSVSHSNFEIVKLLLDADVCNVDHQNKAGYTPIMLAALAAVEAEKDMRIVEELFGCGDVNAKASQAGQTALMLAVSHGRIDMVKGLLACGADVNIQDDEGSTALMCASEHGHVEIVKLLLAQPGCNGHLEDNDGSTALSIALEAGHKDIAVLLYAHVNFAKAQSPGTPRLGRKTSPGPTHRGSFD

In the experiment the parent is B1. The conditions noted are these: with KANK1, Q14678-2.
For the variant R954W, the “effect of a mutation on the interaction” value is recorded as “increasing interaction”. Consider M947T, for which the “effect of a mutation on the interaction” value was “increasing interaction”.

The values are drawn from IntAct's records for PubMed 19559006.
